Reference: US20080286264A1 (Dana-Farber, published 2008)

Biological target: p53(293-393) (human, UniProt P04637 293-393)
Assay: co-IP with anti-p53 from transfected U2OS cells, immunoblot with anti-MUC1 C-ter

p53(293-393), sequence (P04637 293-393): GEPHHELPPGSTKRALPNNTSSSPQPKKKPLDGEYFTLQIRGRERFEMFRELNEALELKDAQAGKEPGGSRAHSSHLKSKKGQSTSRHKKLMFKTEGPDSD

B1: Myc-MUC1-CD(1-72) (other)
chain: CQCRRKNYGQLDIFPARDTYHPMSEYPTYHTHGRYVPPSSTDRSPYEKVSAGNGGSSLSYTNPAVAATSANL
notes: Transiently expressed in U2OS cells; not shown: Myc tag
binding result: binds
